Experimental data reported in US20200062840A1 (KINDRED BIOSCIENCES, published 2020).

T1: canine IL31 with C-terminal polyHis tag (canine, biotinylated at primary amine groups (NHS-LC-Biotin) or at glycan groups (Biotin-LC-Hydrazide))
T1 construct: also called biotinylated canine IL31; canine IL31 (amine-conjugated-biotin); not shown: C-terminal poly-His tag
T1 chain: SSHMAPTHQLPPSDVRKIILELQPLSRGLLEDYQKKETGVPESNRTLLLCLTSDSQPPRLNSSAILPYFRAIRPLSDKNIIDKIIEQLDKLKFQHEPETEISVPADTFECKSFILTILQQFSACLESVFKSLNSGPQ


How the values were obtained:
[1] = molecular target: biotinylated equine IL31 (equine); assay: BLI, biotinylated equine IL31 immobilized to the sensor; preliminary measurement; lower end of the range; preliminary measurement
Chain of biotinylated equine IL31 (equine) (chain, as listed by the source limits assumed, form in doubt): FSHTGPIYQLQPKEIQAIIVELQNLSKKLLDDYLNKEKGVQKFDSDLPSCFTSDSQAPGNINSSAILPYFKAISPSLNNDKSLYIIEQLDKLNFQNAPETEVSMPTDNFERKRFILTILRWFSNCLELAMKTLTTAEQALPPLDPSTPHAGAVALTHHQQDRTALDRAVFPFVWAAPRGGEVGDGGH

[2] = molecular target: biotinylated equine IL31 (equine); assay: BLI, biotinylated equine IL31 immobilized to the sensor; preliminary measurement; upper end of the range; preliminary measurement
[3] = molecular target: T1, canine IL31 with C-terminal polyHis tag; assay: BLI (Octet), canine IL31 (amine-conjugated-biotin) on streptavidin tips, antibody at 400, 200, 66.6 and 33 nM, 2:1 model; canine IL31 (amine-conjugated-biotin)
Method: (§1) The binding analysis was performed using a biosensor Octet as follows. Briefly, canine IL31 was biotinylated at primary amine groups using EZ-Link™ NHS-LC-Biotin (Thermo Scientific, Catalog No. 21336) or at glycan groups using EZ-Link™ Biotin-LC-Hydrazide (ThermoFisher Scientific, Catalog No. 21340) according to the manufacturer's instructions. The free unreacted biotin was removed from biotinylated IL31 by extensive dialysis. Biotinylated canine IL31 was captured on streptavidin sensor tips. The association of four different concentrations (400, 200, 66.6, and 33 nM) of chimeric and caninized M14 antibody and human and canine IL31 (amine-conjugated-biotin) and the association of 100 nM of caninized M14 antibody and canine IL31 (glycan-conjugated-biotin) was monitored for ninety seconds. Dissociation was monitored for 600 seconds. A buffer only blank curve was subtracted to correct for any drift. The data were fit to a 2:1 binding model using ForteBio™ data analysis software to determine the kₒₙ, koff, and the Kd. The buffer for dilutions and all binding steps was: 20 mM phosphate, 150 mM NaCl, pH 7.2.

[4] = molecular target: T1, canine IL31 with C-terminal polyHis tag; assay: BLI (Octet), canine IL31 (glycan-conjugated-biotin) on streptavidin tips, antibody at 100 nM, 2:1 model; canine IL31 (glycan-conjugated-biotin)
Method: as §1

Kd [1]	Kd [2]	Kd [3]	Kd [4]	koff [4]	Binder
> 10 nM	< 50 nM	–	–	–	mouse monoclonal antibody M14 (antibody, V domains shown) VH: EVQLQESGPSLVKPSQTLSLTCSVTGDSITSGYWNWIRKFPGNKLEYMGYISYSGITDYNPSLKSRISITRDTSKNQYYLQLNSVTTEDTATYYCARYGNYGYAMDYWGQGTSVTVSS VL: DIVLTQSPASLAVSLGQRATISCRASESVDTYGNSFMHWYQQKSGQSPKLLIYRASNLESGIPARFGGSGSRTDFTLTIDPVEADDVATYYCQQSYEDPWTFGGGTKLEIK
–	–	< 0.01 nM	< 0.001 nM	< 1e-07 s⁻¹	caninized M14 IgG-B (antibody, V domains shown, canine IgG-B heavy chain and canine light chain constant region; also called caninized M14 antibody) VH: EVQLVESGPSLVKPGGSLRLTCSVTGDSITSGYWNWIRKFPGNKLEYMGYISYSGITDYNPSLKSRITISRDTSKNQYYLQLNSVTTEDTATYYCARYGNYGYAMDYWGQGTLVTVSS VL: DIVMTQSPASLSVSLGQRATISCRASESVDTYGNSFMHWYQQKPGQSPKLLIYRASNLESGIPARFGGSGSGTDFTLTIDPVQADDVATYYCQQSYEDPWTFGGGTKLEIKR
